Test results as given in the nanobody polyreactivity screen of Harvey et al. (2022).

Test: yeast display, Sf9 membrane polyspecificity reagent, FACS + sequencing; frameworks hold sequencing errors
In short: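 Nanobodies came from a synthetic yeast display library in Saccharomyces cerevisiae BJ5465, induced with galactose for 36–48 hours and stained for 1 hour at 4 °C with 10% biotinylated, detergent-solubilized Sf9 membrane reagent. Cells were enriched on streptavidin microbeads and then FACS-sorted, with low and high (top ~1%) gates set on anti-HA fluorescence for expression and streptavidin fluorescence for reagent binding. Each polyreactivity label reflects the gate a clone came from. Genes were amplified by colony PCR, sequenced by MiSeq 2 × 250 and filtered by CDR length.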

Sequence | polyreactivity (PSR sort gate)
QVQLGESGGGLVQAGGSLSLSCAASGITLHNYAMGWYRQAPGKERELVAAISRRGGNTYYADSVKGRFTISRDNAKNTVYLQMNSLIPEDTAVSYCAAYYHGRMDYWGQGTQVTVSS | high polyreactivity
QVQLVESAGGLVQAGGSLSLSCAASGRILDRNGMGWYRQAPGKERELVATITGIADSTYYADSVKGRFTISRDNAKNTVYLQMNSLKPEDTAVYYCAADKYVAEYDYWGQGTQVTVSS | low polyreactivity
QVQIVESGGGLVQAGGSLRLSCAASGSTFTIYAMGRYRQAPGKERELVAAISSGGSTYYADSVKGRFTISRDNAKNTVYLQMNSLKPEDTAVYYCAARVYLSGYGYNYWGQGTQVTVSS | high polyreactivity
QVQLVESGGGLVQAGGSLRLSCAASGIIFQYYVMGWYRQAPGKERELVAAIDKSGGSTYYADSVKGRFTISRDNAKNTVYLQMNSLKPEDTAVYYCAATSYAHKYYGYFGAIKYEYWGQGTQVTVSS | low polyreactivity
QVQLVESGAGLVQAGGSLRLSCAASGSTFWYYAMGLYRQAPGKERELVAAITRDGNTYYADSVKGRFTISRDNAMNSFYLQMNSLKREDTAVYYCAAGFYLLGKYDYWGQGTQVTVSS | high polyreactivity
QVQLVESVGVLDQAGGSLRLSCAASGFTFVRYAMGWYRQAPGKERELVAAISGSGGRTYYADSVKGRFTISRDTAKNTVYLQLNSLKPEDTAVYYCAAVYLVTRGARYEYWGQGTQVTVSS | high polyreactivity
QDQLVESAGGLVQAGGSRRLSCAASGFTFYRNAMGCYRQAPGKERELVAAISITGGRTYYADSVKGRFTISRDNAKNTVYLQMNSLIPEDTAVYYCAKDRQRYGGDFDYWGQGTQLTVSS | high polyreactivity
QVQLVESGGGLVQAGGSLRLSCDASGSIVRYNAMGWYRQAPGKERELVADISTSGGSTYYADSVKGRFTISRDNANNTVYVQMNSLKPEDTAVYYCAKPWYSSGFDYWGQGTQVTVSS | high polyreactivity
QVQLVESGGGIVQAGGSLRLSCAASGSTFNWNAMGWYRQAPGKEREFVAAISKSGGTTYYADSVKGRFTISRDNAKNTVYLQMNSLKPEDTAVYYCAAVRRYHSYPDGGYWGQGTQVTVSS | high polyreactivity
QVQLVESGGGLVQAGGSLRLSCAASGRTFYNAMGWYRQAPGKERELVAAITTGGGTKYADSVKGRFTISRDNAKNTVYLQMNSLKPEDTEVYYCATDAPDRTHSDSGFDAGYDYWGQGTQVTLSS | low polyreactivity
QVQIVESGGGLVQAGGSLRLSCAASGYTFVENAMGWYRQAPGKERELVAAISNGTITYYADSVKGRFTISRDNAKNTVYLQMNSLKPEDTAVYYCADYEYWGQGTQVTVSS | low polyreactivity
QVQLVESGGGLVQAGGSLRLSCAASGRTFVRYAMGWYRQAPGKERELVASIRTGGSTNYADSVKGRFTISRDNAKNTVYLQMNSLKPEDTAVYYCAAPRTYRPWGRMDYWGQGTQVTVSS | high polyreactivity
QVHLVESGGGLVQAGGSLRLSCAASGRIFVGYAMGWSRQAPGKERELVAASTSGGITNYADSVKGRFTISRDNAKNTVYIQMTSLKPEATAVYYCNVKRRVSGYYGYKDYYWGQGTQVTVSS | high polyreactivity
QVQLVESGGGLVQAGGSLRLSCAASGSTFPSNAMGWYRQAPGKESELVAAISDSGSTTYYADSVKGRFTISRDNAKNTVYLQMNSLKPEDTAVYYCNAYLRFVDVSLDYQLLLEHDYWGQGTQVTVSS | low polyreactivity
QGQLEESGGGLVQAGGSLRLSCAASGFIFGGNDMGWYRQAPGKERELVAAISKSGGRTYYADSVKGRFTISRDNAKNTVYLQMNSLKPEDTAVYYCAAVPGRTAEDYGEDYWGQGTQVTVSS | high polyreactivity
QVQLVESGGGLVQAGGSLRLSCAASGFTCYNYAMGWYRQAPGKERELVAAITSSGTSTYYADSVKGRFTISRDNAKNTVYLQMNSLKPEDTAVYYCATYVAYHRGYSTYDHWGQGSQVTVSS | low polyreactivity
QVQLVESGGGLVQAGGSLRLSCAASGSILYVYAMGWYRQAPGKERELVAVITSGGSTNYADSVKGRFTISRDNAKNTVYLQMNSLKPEDTAVYYCRFKYAVAHHFWVYRYDYWGQGTQVTVSS | low polyreactivity
